# Reference: US20080201790A1, “Method and product for regulating cell responsiveness to external signals” (priority 1993, published 2008)
# B1: MEKK1 (protein encoded by p-MEKK1, transiently expressed in COS cells) (enzyme)
# chain: MVTAVPAVFSKLVTMLNASGSTHFTRMRRRLMAIADEVEIAEVIQLGVEDTVDGHQDSLQAVAPTSCLENSSLEHTVHREKTGKGLSATRLSASSEDISDRLAGVSVGLPSSTTTEQPKPAVQTKGRPHSQCLNSSPLSHAQLMFPAPSAPCSSAPSVPDISKHRPQAFVPCKIPSASPQTQRKFSLQFQRNCSEHRDSDQLSPVFTQSRPPPSSNIHRPKPSRPVPGSTSKLGDATKSSMTLDLGSASRCDDSFGGGGNSGNAVIPSDETVFTPVEDKCRLDVNTELNSSIEDLLEASMPSSDTTVTFKSEVAVLSPEKAENDDTYKDDVNHNQKCKEKMEAEEEEALAIAMAMSASQDALPIVPQLQVENGEDIIIIQQDTPETLPGHTKAKQPYREDAEWLKGQQIGLGAFSSCYQAQDVGTGTLMAVKQVTYVRNTSSEQEEVVEALREEIRMMGHLNHPNIIRMLGATCEKSNYNLFIEWMAGGSVAHLLSKYGAFKESVVINYTEQLLRGLSYLHENQIIHRDVKGANLLIDSTGQRLRIADFGAAARLASKGTGAGEFQGQLLGTIAFMAPEVLRGQQYGRSCDVWSVGCAIIEMACAKPPWNAEKHSNHLALIFKIASATTAPSIPSHLSPGLRDVAVRCLELQPQDRPPSRELLKHPVFRTTW
# Target: GST-Ras^V12(GTPγS) agarose (UniProt P01112)
# Assay: GST-Ras^V12 agarose pull-down from COS cell lysate, anti-MEKK immunoblot
binder,measurement,value
B1,fold binding relative to GST-Ras^V12(GDP),> 5 fold
